From paper PMC10573690 (International Journal of Molecular Sciences, 2023) come the findings set out here.

Usually Kd stands for the concentration at which binding is half-saturated. Read a high Kd as a looser complex. As a reminder, the EC50 is the concentration that produces a half-maximal response. Higher therefore signals weaker potency.

Assay [1] addresses T1, IgE-Fc-B-cell receptor construct (3×FLAG tag-Cε2-Cε3-Cε4-EMPD-transmembrane-intracellular domain) on Edox … (Homo sapiens, UniProt P01854, strain). Nature of the assay: cell-based or functional assay.
Target sequence in this assay (P01854 whole entry, looked up, change not shown, the tested form may be a part): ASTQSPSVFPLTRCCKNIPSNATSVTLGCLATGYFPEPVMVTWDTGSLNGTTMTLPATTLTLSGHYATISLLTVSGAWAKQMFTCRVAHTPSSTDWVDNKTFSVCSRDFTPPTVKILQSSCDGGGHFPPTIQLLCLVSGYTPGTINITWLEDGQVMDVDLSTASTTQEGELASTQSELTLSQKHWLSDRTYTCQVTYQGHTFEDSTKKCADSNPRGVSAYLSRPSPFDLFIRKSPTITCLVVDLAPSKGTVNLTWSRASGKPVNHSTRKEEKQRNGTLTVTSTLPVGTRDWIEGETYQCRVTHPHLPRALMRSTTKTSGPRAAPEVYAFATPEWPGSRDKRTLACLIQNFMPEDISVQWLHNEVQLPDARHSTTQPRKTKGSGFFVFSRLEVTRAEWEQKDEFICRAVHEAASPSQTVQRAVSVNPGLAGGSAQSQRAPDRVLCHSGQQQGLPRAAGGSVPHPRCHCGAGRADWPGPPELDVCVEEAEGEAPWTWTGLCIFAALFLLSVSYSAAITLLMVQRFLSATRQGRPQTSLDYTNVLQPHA
Assay [2] has as its target T2, biotinylated EMPD-characteristic peptide (Homo sapiens, synthetic peptide of the …, biotin on the C-terminal lysine (K-biotin)).
T2 construct: added C-terminal lysine that carries the biotin; Held on streptavidin sensors or plates through the biotin; also called synthetic peptide ligand representing a section of the human EMPD; model peptide; source: synthetic peptide; bought: Fisher Scientific
T2 chain: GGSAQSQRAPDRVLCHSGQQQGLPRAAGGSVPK
Description: BLI; biotinylated EMPD peptide on streptavidin sensors (5 µg/mL); antibodies in two-fold dilutions from 250 nM; PBS with 1× Kinetics buffer, 25 °C; steady state value. The settings on record: both partners purified.

The target in assay [3] is T1, IgE-Fc-B-cell receptor construct …. Nature of the assay: flow cytometry on cells; doxycycline-induced Edox cells, antibodies in graded concentrations, 30 min on ice in 2% BSA-PBS; detection with anti-human kappa light chain-FITC. The settings on record: one partner purified. (Flow cytometry measures light scatter and fluorescence of single cells or particles in a stream.)
Target sequence in this assay (P01854 429-546, change not shown): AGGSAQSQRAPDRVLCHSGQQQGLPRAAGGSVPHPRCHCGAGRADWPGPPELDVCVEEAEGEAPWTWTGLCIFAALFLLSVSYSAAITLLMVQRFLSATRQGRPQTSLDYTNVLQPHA

Assay [4] concerns the target T2, biotinylated EMPD-characteristic peptide. Description: ELISA; biotinylated EMPD peptide on streptavidin plate (30 nM); antibodies in 3-fold dilutions from 45 nM in 2% BSA-PBS, RT; detection with anti-human kappa chain-HRP. The settings on record: both partners purified.

B1: 15cl12, chimeric antibody with human constant domains (antibody, V domains shown)
VH: QIQLQQSGAELVKPGASVKLSCKASGYTFTSYDINWVRQRPERGLDWIGWIFPGDGSSKYNENFKGKATLTTDKSSNTAYIHLSRLTSEDSAVYFCARWGKTFDYWGQGTTLTVSS
VL: DIVMSQSPSSLAVSVGEKVTMSCKSSQSLLYSRDQKNYLAWFQQKPGQSPKLLIYWASARESGVPDRFTGSGSGTDFTLTITSLKTEDLAVYYCQQFYNYPRTFGGGTKLEIK
For B1, the “decrease of surface Fcε (anti-FLAG staining, flow cytometry) on Edox cells after 4 h at 37 °C against incubation on ice” value (“decrease of surface Fcε” for short) in assay [1] is more than 80%. In addition, the affinity in assay [2], expressed as Kd, was 11 nM. In assay [3], this molecule had an EC50 of 4 nM.

B2: 15cl12_L328C coupled with MC-Val-Cit-PAB-MMAE (antibody-drug conjugate) (antibody, V domains shown)
VH: B1 VH
VL: B1 VL
In assay [2], B2 gave a Kd of 7.5 nM. Moreover, the EC50 was 0.23 nM in assay [4] and approximately 8 nM in assay [3].

B3: quilizumab (antibody, V domains shown)
VH: EVQLVESGGGLVQPGGSLRLSCAASGFTFSDYGIAWVRQAPGKGLEWVAFISDLAYTIYYADTVTGRFTISRDNSKNTLYLQMNSLRAEDTAVYYCARDNWDAMDYWGQGTLVTVSS
VL: DIQMTQSPSSLSASVGDRVTITCRSSQSLVHNNANTYLHWYQQKPGKAPKLLIYKVSNRFSGVPSRFSGSGSGTDFTLTISSLQPEDFATYYCSQNTLVPWTFGQGTKVEIK
As to B3, the “decrease of surface Fcε” value in assay [1] is approximately 70%.

B4: ligelizumab (antibody, V domains shown)
VH: QVQLVQSGAEVMKPGSSVKVSCKASGYTFSWYWLEWVRQAPGHGLEWMGEIDPGTFTTNYNEKFKARVTFTADTSTSTAYMELSSLRSEDTAVYYCARFSHFSGSNYDYFDYWGQGTLVTVSS
VL: EIVMTQSPATLSVSPGERATLSCRASQSIGTNIHWYQQKPGQAPRLLIYYASESISGIPARFSGSGSGTEFTLTISSLQSEDFAVYYCQQSWSWPTTFGGGTKVEIK
notes: whole heavy chain, IgG1 format; whole light chain; IgG1; made in house; source: HEK293-6E, transfected, purified from supernatant (Protein A)
Consider B4, for which the “decrease of surface Fcε” value in assay [1] was more than 80%. The EC50 in assay [3] was approximately 0.1 nM.
